Laboratory results: the supplement of paper PMC7877785
± gives the uncertainty stated by the source.

Test: self-splicing fitness, log relative to wild type (ln ratio); higher = more splicing; Tetrahymena group I intron in knt gene, E. coli kanamycin selection, DiMSum; sequences stand for … in CUCUCU…GGAGGGAAAAGUUAUCAGGCAUGCACCUGGUAGCUAGUCUUUAAACCAAUAGAUUGCAUCGGUUUAAAAGGCAAGACCGUCAAAUUGCGGGAAAGGGGUCAACAGCCGUUCAGUACCAAGUCUCAGGGGAAACUUUGAGAUGGCCUUGCAAAGGGUAUGGUAAUAAGCUGACGGACAUGGUCCUAACCACGCAGCCAAGUCCUAAGUCAACAGAUCUUCUGUUGAUAUGGAUGCAGUUCACAGACUAAAUGUCGGUCGGGGAAGAUGUAUUCUUCUCAUAAGAUAUAGUCGGACCUCUCCUUAAUGGGAGCUAGCGGAUGAAGUGAUGCAACACUGGAGCCGCUGGGAACUAAUUUGUAUGCGAAAGUAUAUUGAUUAGUUUUGGAGUACUCGUGGUCG
Method in brief: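 Pooled colonies went to amplicon sequencing on an Illumina HiSeq 2500 after six replicate transformations. The plates were LB agar with 100 μg/mL carbenicillin, 50 μM IPTG and 0.2% rhamnose, with or without 25 μg/mL kanamycin, incubated overnight at 37°C or 30°C. The E. coli BL21(DE3) library had all eight P1ex-region intron nucleotides randomised, the intron placed in the knt kanamycin-resistance gene on pET-22b(+). DiMSum fitness is the error-weighted combination of replicate fold changes, kanamycin against none, normalised to wild type.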

## AAUGAGCAAUAUUACGAGGU
30 °C
  self-splicing fitness (ln): -4.31 ± 0.29
37 °C
  self-splicing fitness (ln): -2.49 ± 0.17

## CAAAAGCAAUAUUACGUACU
30 °C
  self-splicing fitness (ln): -2.74 ± 0.11
37 °C
  self-splicing fitness (ln): -0.995 ± 0.09

## UAAAAGCAAUAUUACGAACG
30 °C
  self-splicing fitness (ln): 0.282 ± 0.1
37 °C
  self-splicing fitness (ln): 0.847 ± 0.12

## GCAGAGCAAUAUUACGGCCU
37 °C
  self-splicing fitness (ln): -1.69 ± 0.28

## GUCAAGCAAUAUUACGGUAG
30 °C
  self-splicing fitness (ln): -3.35 ± 0.18
37 °C
  self-splicing fitness (ln): -4.66 ± 0.38

## CUCGAGCAAUAUUACGGACC
30 °C
  self-splicing fitness (ln): -3.81 ± 0.37
37 °C
  self-splicing fitness (ln): -2.52 ± 0.41

## ACCAAGCAAUAUUACGCCUC
30 °C
  self-splicing fitness (ln): -2.34 ± 0.22
37 °C
  self-splicing fitness (ln): -0.371 ± 0.18

## CCCAAGCAAUAUUACGGUUC
30 °C
  self-splicing fitness (ln): -3.38 ± 0.13
37 °C
  self-splicing fitness (ln): -2.6 ± 0.18

## GCGCAGCAAUAUUACGCUUG
30 °C
  self-splicing fitness (ln): -2.57 ± 0.12
37 °C
  self-splicing fitness (ln): -1.06 ± 0.12

## AAGUAGCAAUAUUACGGUAG
30 °C
  self-splicing fitness (ln): -2.85 ± 0.22
37 °C
  self-splicing fitness (ln): -2.72 ± 0.2

## UGCUAGCAAUAUUACGGCCA
30 °C
  self-splicing fitness (ln): -0.186 ± 0.11
37 °C
  self-splicing fitness (ln): -0.178 ± 0.15

## UUGUAGCAAUAUUACGGUCA
30 °C
  self-splicing fitness (ln): -0.412 ± 0.17
37 °C
  self-splicing fitness (ln): -0.486 ± 0.2

## GUUGAGCAAUAUUACGCUCC
30 °C
  self-splicing fitness (ln): -1.81 ± 0.48

## AAUAAGCAAUAUUACGUAGC
37 °C
  self-splicing fitness (ln): -2.38 ± 0.27

## UUAAAGCAAUAUUACGUAAC
30 °C
  self-splicing fitness (ln): -2.67 ± 0.17
37 °C
  self-splicing fitness (ln): -1.62 ± 0.2

## UGUAAGCAAUAUUACGAUUG
30 °C
  self-splicing fitness (ln): -1 ± 0.081
37 °C
  self-splicing fitness (ln): -0.574 ± 0.097

## GUCUAGCAAUAUUACGUGGC
30 °C
  self-splicing fitness (ln): -2.84 ± 0.44
37 °C
  self-splicing fitness (ln): -3.01 ± 0.43

## GUCAAGCAAUAUUACGCGAU
30 °C
  self-splicing fitness (ln): -4.38 ± 0.28
37 °C
  self-splicing fitness (ln): -3.64 ± 0.39

## CGUCAGCAAUAUUACGUGAA
30 °C
  self-splicing fitness (ln): -2.11 ± 0.087
37 °C
  self-splicing fitness (ln): -0.281 ± 0.092

## CAUGAGCAAUAUUACGUGAC
30 °C
  self-splicing fitness (ln): -3.75 ± 0.25

## GGAUAGCAAUAUUACGUAAG
30 °C
  self-splicing fitness (ln): -1.87 ± 0.17
37 °C
  self-splicing fitness (ln): -0.386 ± 0.2

## CCGUAGCAAUAUUACGUUAA
30 °C
  self-splicing fitness (ln): -3.18 ± 0.4
37 °C
  self-splicing fitness (ln): -2.67 ± 0.31

## AACGAGCAAUAUUACGUAAA
30 °C
  self-splicing fitness (ln): -3 ± 0.24
37 °C
  self-splicing fitness (ln): -2.49 ± 0.33

## CGAAAGCAAUAUUACGAACA
30 °C
  self-splicing fitness (ln): -1.92 ± 0.13
37 °C
  self-splicing fitness (ln): -0.112 ± 0.12

## UAAAAGCAAUAUUACGGUCG
30 °C
  self-splicing fitness (ln): -0.35 ± 0.087
37 °C
  self-splicing fitness (ln): -0.0674 ± 0.1

## CCCUAGCAAUAUUACGCGGG
30 °C
  self-splicing fitness (ln): -3.75 ± 0.23
37 °C
  self-splicing fitness (ln): -1.92 ± 0.2

## CUGUAGCAAUAUUACGGAAG
30 °C
  self-splicing fitness (ln): -3.31 ± 0.16
37 °C
  self-splicing fitness (ln): -2.22 ± 0.19

## CAAAAGCAAUAUUACGUAUC
30 °C
  self-splicing fitness (ln): -4.08 ± 0.21
37 °C
  self-splicing fitness (ln): -1.02 ± 0.15

## AAGAAGCAAUAUUACGGCGG
30 °C
  self-splicing fitness (ln): -0.903 ± 0.1
37 °C
  self-splicing fitness (ln): -0.664 ± 0.12

## CUACAGCAAUAUUACGAAGG
30 °C
  self-splicing fitness (ln): -1.22 ± 0.1
37 °C
  self-splicing fitness (ln): -1.49 ± 0.14

## UUGUAGCAAUAUUACGGAGC
30 °C
  self-splicing fitness (ln): -3.08 ± 0.25
37 °C
  self-splicing fitness (ln): -2.38 ± 0.29

## AGCUAGCAAUAUUACGAUUA
30 °C
  self-splicing fitness (ln): -2.31 ± 0.21
37 °C
  self-splicing fitness (ln): -0.806 ± 0.14

## UUCAAGCAAUAUUACGCUGG
30 °C
  self-splicing fitness (ln): -2.29 ± 0.13
37 °C
  self-splicing fitness (ln): -3.05 ± 0.24

## ACAGAGCAAUAUUACGUCGA
30 °C
  self-splicing fitness (ln): -3.1 ± 0.3
37 °C
  self-splicing fitness (ln): -2.73 ± 0.34

## AGGUAGCAAUAUUACGUGCG
30 °C
  self-splicing fitness (ln): -0.955 ± 0.014
37 °C
  self-splicing fitness (ln): -0.358 ± 0.033

## AGGUAGCAAUAUUACGAUGC
30 °C
  self-splicing fitness (ln): -1.62 ± 0.017
37 °C
  self-splicing fitness (ln): -0.828 ± 0.035

## AAACAGCAAUAUUACGUUAG
30 °C
  self-splicing fitness (ln): -3.45 ± 0.14
37 °C
  self-splicing fitness (ln): -1.72 ± 0.12

## CAUAAGCAAUAUUACGCUAC
37 °C
  self-splicing fitness (ln): -1.79 ± 0.21

## GAUCAGCAAUAUUACGGUUA
30 °C
  self-splicing fitness (ln): -0.25 ± 0.066
37 °C
  self-splicing fitness (ln): 0.171 ± 0.067

## UCUGAGCAAUAUUACGUUCA
30 °C
  self-splicing fitness (ln): -2.84 ± 0.18
37 °C
  self-splicing fitness (ln): -2.87 ± 0.28

## GCGUAGCAAUAUUACGUACU
30 °C
  self-splicing fitness (ln): -2.08 ± 0.15
37 °C
  self-splicing fitness (ln): -0.552 ± 0.17

## CCUCAGCAAUAUUACGAAAG
30 °C
  self-splicing fitness (ln): -1.51 ± 0.069
37 °C
  self-splicing fitness (ln): -0.45 ± 0.087

## GUGAAGCAAUAUUACGUGCG
30 °C
  self-splicing fitness (ln): -0.0545 ± 0.077
37 °C
  self-splicing fitness (ln): 0.038 ± 0.094

## GGACAGCAAUAUUACGCCUC
30 °C
  self-splicing fitness (ln): -0.953 ± 0.32
37 °C
  self-splicing fitness (ln): -0.751 ± 0.3

## AUGGAGCAAUAUUACGGGUU
30 °C
  self-splicing fitness (ln): -2.3 ± 0.43
37 °C
  self-splicing fitness (ln): -3.16 ± 0.4

## CGGUAGCAAUAUUACGCAAG
30 °C
  self-splicing fitness (ln): -1.94 ± 0.11
37 °C
  self-splicing fitness (ln): -1.02 ± 0.12

## CGGGAGCAAUAUUACGUUCC
30 °C
  self-splicing fitness (ln): -2.75 ± 0.31

## GCGUAGCAAUAUUACGUUUU
30 °C
  self-splicing fitness (ln): -3.15 ± 0.14
37 °C
  self-splicing fitness (ln): -1.8 ± 0.13

## UGGCAGCAAUAUUACGUGAA
30 °C
  self-splicing fitness (ln): -0.78 ± 0.058
37 °C
  self-splicing fitness (ln): -0.431 ± 0.084

## CCAGAGCAAUAUUACGUUCG
30 °C
  self-splicing fitness (ln): -2.91 ± 0.17
37 °C
  self-splicing fitness (ln): -1.64 ± 0.17

## CGAGAGCAAUAUUACGUAGG
30 °C
  self-splicing fitness (ln): -3.03 ± 0.15
37 °C
  self-splicing fitness (ln): -1.39 ± 0.15

## GGUCAGCAAUAUUACGGUAC
30 °C
  self-splicing fitness (ln): 0.214 ± 0.15
37 °C
  self-splicing fitness (ln): 0.298 ± 0.17

## GCAUAGCAAUAUUACGUUCU
30 °C
  self-splicing fitness (ln): -2 ± 0.096
37 °C
  self-splicing fitness (ln): -0.899 ± 0.1

## GUGCAGCAAUAUUACGGUUG
30 °C
  self-splicing fitness (ln): -2.62 ± 0.19
37 °C
  self-splicing fitness (ln): -1.95 ± 0.16

## GAGCAGCAAUAUUACGCGUG
30 °C
  self-splicing fitness (ln): -1.92 ± 0.15
37 °C
  self-splicing fitness (ln): -1.66 ± 0.18

## AUAAAGCAAUAUUACGAUGA
30 °C
  self-splicing fitness (ln): -0.326 ± 0.083
37 °C
  self-splicing fitness (ln): 0.153 ± 0.12

## UUGCAGCAAUAUUACGCACA
30 °C
  self-splicing fitness (ln): -0.577 ± 0.11
37 °C
  self-splicing fitness (ln): 0.406 ± 0.15

## UUAUAGCAAUAUUACGUUGC
30 °C
  self-splicing fitness (ln): -3.27 ± 0.36
37 °C
  self-splicing fitness (ln): -3.07 ± 0.4

## AUUCAGCAAUAUUACGGUGG
30 °C
  self-splicing fitness (ln): -3.09 ± 0.15
37 °C
  self-splicing fitness (ln): -1.58 ± 0.14

## AUCGAGCAAUAUUACGUCGU
30 °C
  self-splicing fitness (ln): -2.19 ± 0.13
37 °C
  self-splicing fitness (ln): -1.2 ± 0.14

## UGAUAGCAAUAUUACGCCAU
30 °C
  self-splicing fitness (ln): -2.82 ± 0.26
37 °C
  self-splicing fitness (ln): -3.2 ± 0.3

## AGACAGCAAUAUUACGUCUC
30 °C
  self-splicing fitness (ln): -2.87 ± 0.19
37 °C
  self-splicing fitness (ln): -3.53 ± 0.35
